Publication PMC10684895, “The ELAVL3/MYCN positive feedback loop provides a therapeutic target for neuroendocrine prostate cancer”

Biological target: GST-ELAVL3 (UniProt Q14576 1-367)
Experiment: EMSA; 5 mM Mg2+; RNA-EMSA: 20 mM Tris-HCl (pH not stated), 100 mM NaCl, 5 mM MgCl2, 2 mM DTT, 37 C 1 h, 6% native gel at 4 C; pull-down: 50 pmol probe on beads, cell lysate, 4 C overnight
Details: protein: recombinant; tags: N-terminal GST (pGEX-4T-1); label: 3'-biotin

Sequence of GST-ELAVL3 (Q14576 whole entry): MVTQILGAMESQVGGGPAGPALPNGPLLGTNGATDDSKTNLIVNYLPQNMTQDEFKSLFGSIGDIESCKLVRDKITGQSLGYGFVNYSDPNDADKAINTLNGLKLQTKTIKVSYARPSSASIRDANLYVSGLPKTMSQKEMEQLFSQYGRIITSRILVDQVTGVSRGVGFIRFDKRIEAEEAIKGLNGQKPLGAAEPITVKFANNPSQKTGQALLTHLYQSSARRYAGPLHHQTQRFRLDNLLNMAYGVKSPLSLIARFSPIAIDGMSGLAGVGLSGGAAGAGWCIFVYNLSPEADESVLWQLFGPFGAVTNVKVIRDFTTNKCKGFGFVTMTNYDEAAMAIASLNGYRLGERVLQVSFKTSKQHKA

UCCAUCCUAGACACUACCUCAGUCGACGUA (ssRNA) [RICTOR-3'UTR-F3-MUT]
binding result: no binding

CACUCUGCACAUCCUGAUCUCUCUCUCAGA (ssRNA) [MYCN-3'UTR-F1-MUT]
binding result: no binding
